In US20120065254A1:

Target: C5a receptor (CD88) on differentiated U937 cells (UniProt P21730)
Test: cell-based or functional assay

Chain of C5a receptor (CD88) on differentiated U937 cells (P21730 whole entry): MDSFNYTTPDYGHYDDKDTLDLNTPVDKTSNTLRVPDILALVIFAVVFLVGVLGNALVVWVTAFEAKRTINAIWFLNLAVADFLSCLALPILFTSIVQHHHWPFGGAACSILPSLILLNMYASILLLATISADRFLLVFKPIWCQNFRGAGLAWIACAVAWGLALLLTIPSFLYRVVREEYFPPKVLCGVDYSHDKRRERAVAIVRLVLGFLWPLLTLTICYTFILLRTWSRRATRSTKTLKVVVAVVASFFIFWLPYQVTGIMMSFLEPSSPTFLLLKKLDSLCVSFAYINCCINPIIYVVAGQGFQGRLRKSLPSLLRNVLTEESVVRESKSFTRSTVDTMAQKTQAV

chemotaxis of U937 cells, maximal effective concentration [nM] | chemotactic response of U937 cells [nM] | Substance
1 | – | recombinant human C5a (from UniProt P01031 678-751) (ligand)
– | 0.8 | His6-tagged monkey C5a (His6-macC5a) (ligand)
